{"source": "patent US6710030B1", "about": "“Contortrostain (CN) and methods for its use in preventing metastasis and other conditions” (University of Southern California, priority 1993, dated 2004)", "molecules": {"B1": {"name": "contortrostatin (protein)", "chain": "DAPANPCCDAATCKLTTGSQCADGLCCDQCKFMKEGTVCRRARGDDLDDYCNGISAGCPRNPFHA"}}, "key": {"[1]": {"system": "human platelet rich plasma", "assay": "ADP-induced platelet aggregation in human platelet rich plasma", "assay_type": "cell-based", "method": "Column fractions obtained during purification were assayed for activity using fresh human platelet rich plasma (PRP) prepared from blood obtained from human volunteers who had had no medication for at least two weeks. Blood (36 ml) was drawn into 4 ml of 0.1 M citrate and centrifuged at 150×g for 20 minutes. The supernatant, PRP, was removed and the remaining blood was centrifuged at 10,000 RPM to obtain platelet poor plasma (PPP). Platelet counts were adjusted to 250,000 platelets/μl using a Coulter counter. A Helena four channel aggregometer was used to monitor platelet aggregation. Inhibition of ADP-induced platelet aggregation was monitored at 37° C. by adding venom fractions one minute prior to the addition of ADP (10-20 μM final concentration). […] Rabbit and canine PRP was prepared by the same procedure and used in the studies described below.\nCN inhibited ADP-induced platelet aggregation in human, canine, and rabbit PRPs (FIG. 6). Empty circles represent human platelet rich plasma, solid circles represent canine PRP, and empty triangles represent rabbit PRP. Varying concentration of CN were preincubated for one minute with PRP prior to the addition of ADP."}, "[2]": {"system": "MDA-MB-435 tumor", "assay": "Orthotopic MDA-MB-435 breast cancer metastatic model in nude mice", "assay_type": "in vivo", "method": "A spontaneous (orthotopic) metastatic model of nude mice has been established by implantation of MDA-MB-435 cells (5×10^5 in 0.1 ml) in the mammary fat pads (mfp). Palpable tumors appeared by the 10th day post-implantation. Daily injections of CN into the tumor masses of each of the groups arc carried out, started at the 14th day post-implantation. By the 8th week post-implantation, tumors were removed. The animals were allowed to survive for 2 more weeks without CN administration. The animals were then sacrificed and lung metastases were carefully examined. […] The volumes of tumor masses (mean±S.D.) of control (dark bars), low-dosage (0.5 μg/day, gray bars), and high-dosage (5 μ/day, light gray bars) CN-treated group are shown. The seven clusters of bars from left to right represent the data of pre-injection (PI, 14th day post-implantation) and the 1st through 6th week of injection. Student t-tests were employed to test the significance of differences. *and** indicate P<0.05 and p<0.01, respectively."}, "[3]": {"system": "MDA-MB-435 tumor on CAM", "assay": "MDA-MB-435 tumor induced angiogenesis on chick embryo chorioallantoic membrane (CAM)", "assay_type": "in vivo", "method": "MDA-MB-435 tumor masses were inoculated on CAM of 10-day chick embryos. CN at various dosages were injected intravenously into CAM on day 2 post-inoculation. […] Chick embryo is immunodeficient, and thus allows the growth of implanted MDA-MB-435 tumor. The embryos are incubated at 37° C. with humidity at 60%. CN at various dosages was injected intravenously into CAM on day 2 post-inoculation. […] On the top (FIG. 16A) is the control embryo. The vessels are distributed in a convergent manner with the tumor mass in the center. In the middle (FIG. 16B) is the CAM treated with 20 μg of CN. On the bottom (FIG. 16C) is the CAM treated by 150 μg of CN."}, "[4]": {"system": "MDA-MB-435 cells", "assay": "Growth of MDA-MB-435 cells in vitro on Matrigel-coated plates", "assay_type": "cell-based, human", "method": "MDA-MB-435 cells (0.3×10^6/ml) were added to each well of a 6-well cell culture plates coated with 1/100 dilution of Matrigel . Cells were then treated with CN at various concentration. Growth curves of MDA-MB-435 cells in vitro without CN (circles), and with CN at 100 nM (triangles), and 500 nM (diamonds) are illustrated. Six-well cell culture plates coated with Matrigel (1/100 dilute) were seeded with 3 ml of MDA-MB-435 cell suspension (0.3×10^6/ml). Cell density was determined every 24 hours."}, "[5]": {"system": "T24-β3 neg. cells", "assay": "Adhesion of T24-β3 neg. cells to immobilized vitronectin", "assay_type": "cell-based, human", "conditions": "FIG. 19 C, D", "method": "Experiment 1. Cell adhesion assay: Human bladder carcinoma T24 cells were purchased from ATCC, and grown in RPMI1640 medium containing 5% fetal bovine serum. T24-β3 neg. cells were isolated by 6 rounds of negative FACS selection with anti-αvβ3 monoclonal antibody (mAb) LM609. FACS analysis was then performed as follows. The cells were resuspended in 1% BSA/PBS at a density of 1×10^7/ml. Aliquots of 100 μl were incubated with anti-αvβ3 mAb 7E3 or anti-αvβ5 mAb P1F6 (final concentration 5 μg/ml) at room temperature for 30 minutes. The cells were washed twice and resuspended in 1% BSA/PBS. Goat anti-mouse IgG conjugated with FITC was added to the suspension at a final titer of 1:200. After 30 minutes incubation at room temperature in darkness, unbound FITC-conjugated IgG was washed off, and the fluorescent intensity of the cells was analyzed using flow cytometry (FACScan, Becton Dickinson, Bedford, Mass.). Tests were performed in duplicate and the experiment was repeated three times. The results clearly indicate that T24 cells express both integrins αvβ3 (major) and αvβ5 (minor), but T24-β3 neg. cells only express αvβ5 (FIG. 18)\nIndividual wells of 96-well plates were coated at 4° C. overnight with 100 μl of vitronectin (1 μg/well). […] Cell adhesion was quantified either by CellTiter 96™ Aqueous Proliferation Assay kit (Promega, Madison, Wis.). […]"}, "[6]": {"molecular_target": "purified (GP)IIb/IIIa (Homo sapiens, UniProt P05106+P08514)", "assay": "Fibrinogen-(GP)IIb/IIIa ELISA", "assay_type": "binding", "source_text": "Several lines of evidence indicate that CN inhibits platelet aggregation by binding specifically to the (GP)IIb/IIIa integrin receptor. […] Additionally, the partial amino acid sequence of CN indicates considerable similarity with other disintegrins known to bind to (GP)IIb/IIIa. Finally, CN blocks 7E3 binding to (GP)IIb/IIIa. 7E3 is a murine monoclonal antibody that specifically binds to (GP)IIb/IIIa, thereby inhibiting human and canine platelet aggregation [Coller, B. S. et al., J. Clin. Invest. 72:325 (1983)]."}}, "note": "“Also recorded” adds a separate entry of the source."}
{"molecule": "B1", "values": [{"measurement": "IC50 of ADP-induced human platelet aggregation", "setting": "[1]; 10 μM ADP, preincubated one minute", "result": 0.73, "unit": "µg/mL"}, {"measurement": "platelet aggregation inhibitory activity after reduction of the disulfide bonds", "setting": "[1]; even at concentrations ten times the IC50", "result": "completely eliminated platelet aggregation inhibitory activity"}, {"measurement": "# of nodules in lung (median)", "setting": "[2]; 5 μg/day", "result": 4.5}, {"measurement": "Mean size of relapse tumor", "setting": "[2]; 5 μg/day", "result": "48.7 ± 10.5", "unit": "mm^3"}, {"measurement": "In situ relapse", "setting": "[2]; 5 μg/day, animals with/total", "result": "2/6"}, {"measurement": "Metastasis incidence, Other Organs", "setting": "[2]; 5 μg/day, chest wall, mediastinum, diaphragm, pleurae", "result": "2/6"}, {"measurement": "growth of the tumor (tumor mass volume)", "setting": "[2]; daily local injection into tumor", "result": "substantially inhibited the growth rate of the tumor; also recorded: significantly smaller"}, {"measurement": "inhibition of metastasis", "setting": "[2]; high dose CN group versus control", "result": "> 90", "unit": "%"}, {"measurement": "mean weight of tumors", "setting": "[2]; high-dose CN (5 μg/day), P<0.05", "result": "significantly lower than control group"}, {"measurement": "bleeding at the injection sites", "setting": "[2]; mouse, in vivo", "result": "Some bleeding at the injection sites"}, {"measurement": "spontaneous hemorrhage", "setting": "[2]; mouse, in vivo", "result": "no spontaneous hemorrhage"}, {"measurement": "toxicity in chronic experiment", "setting": "[2]; mouse, in vivo", "result": "not toxic"}, {"measurement": "tumor mass on CAM", "setting": "[3]; 20 μg of CN", "result": "smaller than that on control CAM"}, {"measurement": "tumor induced angiogenesis (vessels)", "setting": "[3]; 20 μg of CN intravenously", "result": "thinner and less dense than control"}, {"measurement": "tumor mass on CAM", "setting": "[3]; 150 μg of CN", "result": "necrotic tumor mass with volume significantly smaller than control and low dose CN"}, {"measurement": "tumor induced angiogenesis (vessels)", "setting": "[3]; 150 μg of CN intravenously", "result": "the vessels are even thinner and the convergent distribution pattern disappears completely"}, {"measurement": "cytotoxicity during in vitro culture", "setting": "[4]", "result": "no direct cytotoxicity"}, {"measurement": "proliferation of MDA-MB-435 cells", "setting": "[4]; CN at 100 nM and 500 nM", "result": "proliferate equally well as control cells"}, {"measurement": "adhesion of T24-β3 neg. cells to vitronectin, in words", "setting": "[5]", "result": "completely inhibited adhesion; also recorded: inhibits adhesion of T24-β3 neg. completely"}, {"measurement": "(GP)IIb/IIIa binding to immobilized fibrinogen", "setting": "[6]", "result": "effectively blocks (GP)IIb/IIIa binding"}]}
